# Reference: patent publication US8110402B2, “Metal abstraction peptide (MAP) tag and associated methods” (University of Kansas, priority 2008, dated 2012)
# Where a SMILES comes first, the peptide text is derived from it. [ ]: non-standard residue; d: D form.
# B1: PRL-1: recombinant wild-type human PRL-1 protein containing the C-terminal NCC motif (protein, UniProt Q93096 1-170, looked up)
# Protein tyrosine phosphatase …: MARMNRPAPVEVTYKNMRFLITHNPTNATLNKFIEELKKYGVTTIVRVCEATYDTTLVEKEGIHVLDWPFDDGAPPSNQIVDDWLSLVKIKFREEPGCCIAVHCVAGLGRAPVLVALALIEGGMKYEDAVQFIRQKRRGAFNSKQLLYLEKYRPKMRLRFKDSNGHRNNC
# B2: Apo PRL-1: PRL-1 protein without bound metal (protein, UniProt Q93096 1-170, looked up)
# Protein tyrosine phosphatase …: MARMNRPAPVEVTYKNMRFLITHNPTNATLNKFIEELKKYGVTTIVRVCEATYDTTLVEKEGIHVLDWPFDDGAPPSNQIVDDWLSLVKIKFREEPGCCIAVHCVAGLGRAPVLVALALIEGGMKYEDAVQFIRQKRRGAFNSKQLLYLEKYRPKMRLRFKDSNGHRNNC
# modifications: apo form, no bound metal
# B3: PRL-1-H166A: PRL-1 mutant with His166 of the NGH motif replaced by Ala (protein, UniProt Q93096 1-170, looked up, variant H166A)
# Protein tyrosine phosphatase …: MARMNRPAPVEVTYKNMRFLITHNPTNATLNKFIEELKKYGVTTIVRVCEATYDTTLVEKEGIHVLDWPFDDGAPPSNQIVDDWLSLVKIKFREEPGCCIAVHCVAGLGRAPVLVALALIEGGMKYEDAVQFIRQKRRGAFNSKQLLYLEKYRPKMRLRFKDSNGARNNC
# B4: C170S: PRL-1 mutant with Cys170 replaced by Ser (protein, UniProt Q93096 1-170, looked up, variant C170S)
# Protein tyrosine phosphatase …: MARMNRPAPVEVTYKNMRFLITHNPTNATLNKFIEELKKYGVTTIVRVCEATYDTTLVEKEGIHVLDWPFDDGAPPSNQIVDDWLSLVKIKFREEPGCCIAVHCVAGLGRAPVLVALALIEGGMKYEDAVQFIRQKRRGAFNSKQLLYLEKYRPKMRLRFKDSNGHRNNS
# Tests used:
# [1] = UV-Vis absorption spectroscopy of Ni coordination; assay type: binding
# Description: UV-Vis absorption spectra were used to measure the concentration of the PRL-1 protein. Briefly, the concentrations of purified PRL-1 analogs were measured at 280 nm and calculated using an extinction coefficient of 19420 M^−1 cm^−1. Because of possible metal-protein absorption interferences in the high 200 nm region, the validity of the UV-Vis quantification method was confirmed by the Bradford method. Spectra of PRL-1 analogs at concentrations of 10, 5, 2.5, and 1.25 mg/mL were collected on a Cary 100 UV-Vis spectrophotometer from 800 to 200 nm. […] The resulting spectra were resolved and peak positions were evaluated using GRAMS/AI 7.00 software. Three methods were aimed at metal displacement. In the first, PRL-1-WT (e.g., wild type) samples were reduced using 20 mM β-mercaptoethanol (BME), and imidazole was added to a concentration of 10 mM. For […] protein samples, this corresponds to […] solution excess of BME to compete with the two C-terminal cysteine thiols and a 200-fold solution excess of imidazole to compete with the single C-terminal histidine imidazole side chain. New baselines were taken and the spectra recalculated. In the second method, baselines were recalculated for buffer containing 100 μM EDTA, and the spectrum for the PRL-1-WT sample that was exchanged ten million fold in 100 μM EDTA was recorded. […]
# [2] = ICP-MS of metal bound to purified PRL-1 variants (Ni); assay type: binding; details: for Ni bound (ICP-MS): PRL-1 variants analyzed in parallel, Ni-IMAC purified
# Description: (§1) ICP-MS was used to characterize the bound metal. Briefly, purified protein samples were digested in concentrated nitric acid in PFA microcentrifuge tubes (Savillex, #s 7240, 7241) at 68±1° C. for 16.5±0.7 hours. Based on protein quantification prior to digestion, the sample was then diluted to 1.5 μM in 20 mM ammonium bicarbonate, pH 8.2, filtered through a 0.2 μm nylon filter, and injected into a VG Elemental VGII+XS Inductively-Coupled Plasma-Mass Spectrometer fitted with a microconcentric nebulizer. A minimum of two separately prepared samples were analyzed for each protein variant. Each sample was scanned twice and standards were run before, between, and after each sample scan. Drift was monitored during washes between scans of both sample and standard injections.
# To investigate our hypothesis that the chromophore arises from protein abstraction of the metal from the charged IMAC matrix, samples were subjected to ICP-MS for semi-quantitative analysis. As extensive washing is used to remove background metals, the values obtained from this method inherently underestimate the amount of metal bound, but can be used to assess the relative affinity of different metals for the protein. Additionally, to identify an endogenous metal ligand that may have been bound to PRL-1 during expression in the cells, ICP-MS was used to look for the presence of a transition metal from the first two rows in the periodic table as well as other common biologically relevant metals. […] On average 500 μM Ni-purified protein samples were digested in nitric acid for 16 h at 70° C. were determined to contain approximately 180 μM Ni, yielding a Ni to protein stoichiometry of 1:2.7+/−0.7. Zn was also detected in the Ni-purified samples at approximately 60 μM. […] Because ICP-MS analysis is conducted in a flow of Ar and the most abundant isotope of Ar has the same mass as Ca, Ca binding cannot be determined from the primary mass signal. Nonetheless, because a much higher amount of Ca was present in the cell culture media compared to Zn and yet the ICP-MS signal corresponds largely to zinc, the protein is unlikely to bind calcium.
# [3] = ICP-MS of metal bound to purified PRL-1 (Zn); assay type: binding
# Description: as §1
# To investigate our hypothesis that the chromophore arises from protein abstraction of the metal from the charged IMAC matrix, samples were subjected to ICP-MS for semi-quantitative analysis. […] On average 500 μM Ni-purified protein samples were digested in nitric acid for 16 h at 70° C. were determined to contain approximately 180 μM Ni, yielding a Ni to protein stoichiometry of 1:2.7+/−0.7. Zn was also detected in the Ni-purified samples at approximately 60 μM. […]
# [4] = Metal displacement from Ni-purified PRL-1 followed by UV-Vis (BME, imidazole, EDTA, guanidinium hydrochloride/heat); assay type: physicochemical
# Description: UV-Vis absorption spectra were used to measure the concentration of the PRL-1 protein. Briefly, the concentrations of purified PRL-1 analogs were measured at 280 nm and calculated using an extinction coefficient of 19420 M^−1 cm^−1. Because of possible metal-protein absorption interferences in the high 200 nm region, the validity of the UV-Vis quantification method was confirmed by the Bradford method. Spectra of PRL-1 analogs at concentrations of 10, 5, 2.5, and 1.25 mg/mL were collected on a Cary 100 UV-Vis spectrophotometer from 800 to 200 nm. […] The resulting spectra were resolved and peak positions were evaluated using GRAMS/AI 7.00 software. Three methods were aimed at metal displacement. In the first, PRL-1-WT (e.g., wild type) samples were reduced using 20 mM β-mercaptoethanol (BME), and imidazole was added to a concentration of 10 mM. For 0.5 mM protein samples, this corresponds to 400-fold solution excess of BME to compete with the two C-terminal cysteine thiols and a 200-fold solution excess of imidazole to compete with the single C-terminal histidine imidazole side chain. New baselines were taken and the spectra recalculated. In the second method, baselines were recalculated for buffer containing 100 μM EDTA, and the spectrum for the PRL-1-WT sample that was exchanged ten million fold in 100 μM EDTA was recorded. Finally, 10 mg/mL protein samples were denatured in 5.6 M guanidinium hydrochloride and heated to 90° C., new baselines were taken, and the spectra were collected at 0, 2, 4 and 6 hrs.
# [5] = Solubility of metal-free protein; assay type: physicochemical; details: metal-free (apo) protein
molecule,measurement,setting,value
NC(=O)C[C@@H](N)C(=O)N[C@H](CS)C(=O)N[C@H](CS)C(=O)O [NCC] (H-[dN]-[dC]-[dC]-OH),absorbance spectrum after incubation with metal-charged IMAC resin,[1]; synthetic tripeptides,mimics that observed for the peptide-metal complex embedded in PRL-1
B1,Ni bound (ICP-MS),[2],approximately 120 μM
same,Ni content (ICP-MS),"[2]; on average 500 μM Ni-purified protein, nitric acid digest 16 h at 70° C.",approximately 180 μM
same,Zn detected (ICP-MS),[3]; Ni-purified samples,approximately 60 μM
same,Zn present (ICP-MS),[3]; purified using Zn-IMAC,270 µM
same,"loss of peaks at 318, 421 and 526 nm (Ni release)",[4]; 5.6 M guanidinium hydrochloride at 90° C.,only gradually disappear over 6 hrs
same,effect of 10 mM imidazole on absorption profile,[4]; Ni-purified,no effect
same,effect of ten million-fold exchange into 100 μM EDTA on spectrum,[4]; Ni-purified,little effect
same,effect of 20 mM BME on absorption profile,"[4]; Ni-purified, pH 7.4",did not alter
same,reversibility of Ni binding,[4]; pH 7.4,irreversible
B2,solubility,[5],poorly soluble
B3,Ni bound (ICP-MS),[2],~60 µM
same,decrease in signal by absorption spectroscopy,"[1]; relative to wild-type PRL-1, Ni-purified",20%
B4,Ni bound (ICP-MS),[2],No Ni was detected
